Data on seven molecules can be found in US20260167727A1 (FIBRO BIOMED TECHNOLOGY GUANGZHOU, published 2026).

Changes are numbered by the printed parent chain.

Test [1] addresses T1, DDR2 antigen overexpressed on cells (UniProt Q16832).
T1 sequence (looked up): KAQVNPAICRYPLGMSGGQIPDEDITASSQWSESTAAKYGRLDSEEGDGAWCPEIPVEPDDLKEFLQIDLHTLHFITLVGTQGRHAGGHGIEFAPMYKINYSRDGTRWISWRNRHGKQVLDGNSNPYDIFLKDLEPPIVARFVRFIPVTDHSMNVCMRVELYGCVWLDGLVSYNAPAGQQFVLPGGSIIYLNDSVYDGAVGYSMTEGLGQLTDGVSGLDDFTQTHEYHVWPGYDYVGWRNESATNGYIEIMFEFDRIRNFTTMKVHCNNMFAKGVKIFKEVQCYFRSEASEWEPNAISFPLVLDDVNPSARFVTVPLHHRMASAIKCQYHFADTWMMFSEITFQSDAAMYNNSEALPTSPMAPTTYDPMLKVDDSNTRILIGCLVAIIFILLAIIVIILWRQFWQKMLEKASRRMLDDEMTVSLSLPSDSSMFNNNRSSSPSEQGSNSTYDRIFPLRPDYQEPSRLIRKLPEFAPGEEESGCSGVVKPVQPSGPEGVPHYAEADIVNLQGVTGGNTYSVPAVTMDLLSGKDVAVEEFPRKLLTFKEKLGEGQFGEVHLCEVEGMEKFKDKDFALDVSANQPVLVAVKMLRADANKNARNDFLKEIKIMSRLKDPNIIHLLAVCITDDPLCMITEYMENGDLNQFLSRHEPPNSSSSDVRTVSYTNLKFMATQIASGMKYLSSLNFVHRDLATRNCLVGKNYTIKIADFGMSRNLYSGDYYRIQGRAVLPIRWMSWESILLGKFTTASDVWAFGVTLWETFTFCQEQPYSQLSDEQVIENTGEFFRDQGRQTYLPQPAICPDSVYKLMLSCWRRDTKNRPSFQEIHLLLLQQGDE
Nature of the test: flow cytometry on 293T DDR2 cells, anti-His-488 secondary; control on 293T DDR2 R3 0.94%; on parental 293T cells 1A1-1A12 R3 0.44% and control R3 0.46%. (In flow cytometry, cells or beads pass a laser one at a time.)

A further test concerns the target T2, bovine serum albumin (bovine, UniProt P02769 25-607).
T2 construct: also called BSA; negative control protein
The experiment in a line: ELISA at one antibody amount, wells coated with antigen-DDR2 or BSA, OD450. On the procedure: The Flag tag was fused into the nano-antibody gene coding sequence and five DDR2 antibodies with Flag tag were expressed and purified: TAT, 1A5, 1A12, 1B2, 1B3; Then, the extracellular segment of DDR2 antigen was used to coat at 100 ng/well→goat serum was used to block overnight→PBS was used to wash three times, anti-DDR2 (five purified DDR2 antibodies, all comprising Flag tag) 200 ng/well, 37° C. 1 h→Anti Flag (Sigma, F1804-200UG, 1 mg/ml) 1:2500, 37° C. 1 h→G&M (HRP) 1:5000, 37° C. 30 min (horseradish peroxidase labeled anti Flag antibody amplification signal, TMB staining)→TMB staining at 37° C. 30 min→1M HCl for termination; A blank control was prepared simultaneously.
+[0199]5 nano-antibodies that were expressed and purified and identified as correct in the previous step, along with the extracellular segment of DDR2 antigen and the negative control protein bovine serum albumin (BSA), were subjected to ELISA validation.
(In an ELISA, binding on a coated surface is turned into a signal by an enzyme label.)

In test [2] the target is T3, human DDR2 in lung tissue (human, UniProt Q16832 22-855).
T3 construct: whole, on cells; Endogenous protein in tissue slices; also called DDR2 in lung tissue of IPF patients
T3 sequence (looked up): T1 sequence (looked up)
The experiment in a line: imaging of lung tissue slices of IPF patients and normal donors stained with ICG labeled 1A12. As for the experimental part:
Lung tissues from normal donors and patients with idiopathic pulmonary fibrosis (IPF) were cut to a thickness of 600 μm in vitro, with high expression of DDR2 in IPF patients' lung tissues and low or no expression of DDR2 in normal donors' lungs. The Normal group was used as control, and lung tissue slices from IPF patients were used as the experimental group. After staining with ICG labeled DDR2 nano-antibody 1A12, in vitro live imaging was performed.

In another test the target is T4, mouse DDR2 in tissue (mouse, UniProt Q62371 22-854).
T4 construct: whole, on cells; Endogenous protein in tissue slices, not a purified protein; also called DDR2 in mouse lung tissue slices; DDR2 in the mouse retina
T4 sequence (looked up): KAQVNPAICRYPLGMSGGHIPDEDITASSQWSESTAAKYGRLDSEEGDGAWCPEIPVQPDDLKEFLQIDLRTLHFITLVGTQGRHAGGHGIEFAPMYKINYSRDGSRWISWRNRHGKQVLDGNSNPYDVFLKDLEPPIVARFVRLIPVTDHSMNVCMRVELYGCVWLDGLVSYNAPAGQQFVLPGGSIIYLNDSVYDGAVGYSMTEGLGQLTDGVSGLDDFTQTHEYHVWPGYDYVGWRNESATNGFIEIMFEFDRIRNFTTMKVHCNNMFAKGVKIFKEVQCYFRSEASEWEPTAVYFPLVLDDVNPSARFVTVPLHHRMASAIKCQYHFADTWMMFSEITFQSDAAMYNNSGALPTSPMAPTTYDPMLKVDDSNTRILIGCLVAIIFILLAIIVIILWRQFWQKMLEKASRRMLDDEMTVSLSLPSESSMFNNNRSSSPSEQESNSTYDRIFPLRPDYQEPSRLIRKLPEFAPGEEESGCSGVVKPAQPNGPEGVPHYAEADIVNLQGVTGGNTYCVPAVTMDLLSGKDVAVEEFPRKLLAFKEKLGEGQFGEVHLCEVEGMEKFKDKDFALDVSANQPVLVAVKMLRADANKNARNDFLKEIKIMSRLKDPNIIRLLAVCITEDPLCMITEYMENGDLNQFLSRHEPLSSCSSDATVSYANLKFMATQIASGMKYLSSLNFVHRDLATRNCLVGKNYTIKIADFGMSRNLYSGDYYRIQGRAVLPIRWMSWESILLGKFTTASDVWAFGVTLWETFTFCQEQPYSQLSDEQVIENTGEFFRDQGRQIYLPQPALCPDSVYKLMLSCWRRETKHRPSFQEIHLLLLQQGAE
The experiment in a line: near-infrared imaging of mouse lung tissue slices stained with ICG labeled 1A12 (untreated, bleomycin, mTGF-β). As for the experimental part:
Fresh lung tissue from normal mice was cut into a thickness of […]. One was used as an untreated control, one was induced with bleomycin, and the other one was induced with mTGF-β cytokines, both for 72 hours (both treatment groups were able to promote DDR2 expression). Then, each group was stained with ICG labeled DDR2 nano-antibody 1A12 (1 ug per sample) for 30 minutes, followed by washing multiple times with PBS to remove non-specific staining. Then, imaging was performed using a live imaging device.

The target of test [3] is T5, human DDR2 extracellular segment (human, UniProt Q16832 22-399).
T5 construct: range 22-399; In BLI it carried a His tag (printed 'Hig tag') and was captured on Ni-NTA; also called extracellular segment of DDR2 antigen; extracellular segment protein of DDR2 antigen
T5 sequence (looked up): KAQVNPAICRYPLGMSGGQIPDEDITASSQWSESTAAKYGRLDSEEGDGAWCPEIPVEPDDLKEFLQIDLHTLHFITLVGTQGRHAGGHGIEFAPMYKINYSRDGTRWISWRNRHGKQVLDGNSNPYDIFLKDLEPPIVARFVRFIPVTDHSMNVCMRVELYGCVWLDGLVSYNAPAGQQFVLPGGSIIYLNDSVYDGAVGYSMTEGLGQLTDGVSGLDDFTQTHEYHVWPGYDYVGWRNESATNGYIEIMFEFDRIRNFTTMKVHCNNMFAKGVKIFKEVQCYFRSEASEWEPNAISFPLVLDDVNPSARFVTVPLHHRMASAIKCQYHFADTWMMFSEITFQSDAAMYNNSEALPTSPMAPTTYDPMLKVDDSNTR
Nature of the test: ELISA, plate coated with DDR2 extracellular segment, Flag-tagged nano-antibody titrated, anti-Flag then HRP secondary, TMB, OD450. The arrangement: unit not given here.

T2 sequence (P02769 25-607 limits assumed): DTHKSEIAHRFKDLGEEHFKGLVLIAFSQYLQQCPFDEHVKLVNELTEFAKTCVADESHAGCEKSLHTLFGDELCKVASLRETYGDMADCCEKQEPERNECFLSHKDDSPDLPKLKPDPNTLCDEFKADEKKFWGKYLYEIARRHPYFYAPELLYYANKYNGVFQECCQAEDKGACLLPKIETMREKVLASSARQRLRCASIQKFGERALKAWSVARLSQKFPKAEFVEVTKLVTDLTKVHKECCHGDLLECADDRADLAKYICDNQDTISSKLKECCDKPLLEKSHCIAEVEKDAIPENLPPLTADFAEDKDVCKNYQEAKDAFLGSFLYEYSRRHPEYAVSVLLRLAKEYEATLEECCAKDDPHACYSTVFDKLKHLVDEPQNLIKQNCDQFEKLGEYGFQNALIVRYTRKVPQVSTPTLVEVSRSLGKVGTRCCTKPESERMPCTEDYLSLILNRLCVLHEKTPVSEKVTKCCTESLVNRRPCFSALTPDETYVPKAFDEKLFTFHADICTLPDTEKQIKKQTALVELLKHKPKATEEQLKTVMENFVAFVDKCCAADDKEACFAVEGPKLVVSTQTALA

B1: heterodimeric anti-DDR2 nano-antibody 1A1-1A12 (bispecific antibody, part only; not given: His tag, not shown: small tags and cut ends)
chain, part: EVQLVESGGGLVQPGGSLRLSCAASGYILSPNVMGWFRQAPGKGRELVAAISWGDGRTYYPDSVEGRFTISRDNAKRMVYLQMNSLRAEDTAVYYCAASRKGYPSTRSDPYNYWGQGTQVTVSSGGGSGGGSGGGSEVQLVESGGGLVQPGGSLRLSCAASGRIFSINVMGWFRQAPGKGRELVAAINTRGGSTYYPDSVEGRFTISRDNAKRMVYLQMNSLRAEDTAVYYCAASRKGYPSTRSDPYDYWGQGTQVTVSS
Regarding B1, in test [1], the R3, percent of cells in the FITC-H positive gate amounted to 33%.

B2: anti-DDR2 nano-antibody 1B2 (VHH)
VHH: EVQLVESGGGLVQPGGSLRLSCAASGYIFSIYAMGWFRQAPGKGRELVARISWGDGSTWYPDSVEGRFTISRDNAKRMVYLQMNSLRAEDTAVYYCAAAIKGRGVVTQLGYNYWGQGTQVTVSS
notes: also called 1B2-VHH
As to B2, the binding result with bovine serum albumin is “no binding”.

B3: ICG labeled DDR2 nano-antibody 1A12 (VHH)
VHH: EVQLVESGGGLVQPGGSLRLSCAASGYILSPNVMGWFRQAPGKGRELVAAISWGDGRTYYPDSVEGRFTISRDNAKRMVYLQMNSLRAEDTAVYYCAASRKGYPSTRSDPYNYWGQGTQVTVSS
modifications: indocyanine green (ICG) coupled with ICG-NHS; sites not stated
notes: also called ICG labeled 1A12 nano-antibody; Nb-DDR2 labeled with indocyanine green
For B3, the binding result (in test [2]; with mouse DDR2 in tissue) was “binds” each time.

B4: anti-DDR2 nano-antibody 1A1 (VHH)
VHH: B3 VHH with Y27R, L29F, P31I, S52N, W53T, G54R, D55G, R57S, N112D
notes: Expressed in E. coli BL21(DE3); also called 1A1-VHH
Regarding B4, the binding result with bovine serum albumin is reported as “no binding”.

B5: anti-DDR2 nano-antibody 1A12 (VHH)
VHH: B3 VHH
notes: also called 1A12-VHH; DDR2 antibody 1A12
In the case of B5, the binding result in the test with bovine serum albumin is recorded as “no binding”. The “EC50 (read off the curve)” value in test [3] was roughly 1.

B6: anti-DDR2 nano-antibody 1A5 (VHH)
VHH: EVQLVESGGGLVQPGGSLRLSCAASGITLSLYIMGWFRQAPGKGRELVAAISRTGGSTYYPDSVEGRFTISRDNAKRMVYLQMNSLRAEDTAVYYCAADFYGNATLGYNYWGQGTQVTVSS
notes: also called 1A5-VHH
Consider B6, for which the binding result in the test with bovine serum albumin is listed as “no binding”.

B7: anti-DDR2 nano-antibody 1B3 (VHH)
VHH: B6 VHH with I27D, L29F, L31Y, I33V, F100P, G102I, N103S, A104G
notes: also called 1B3-VHH
With B7, the binding result in the test with bovine serum albumin is listed as “no binding”.
